Where two headings read alike, the source gives them in different places.
T1: Human IL-17C (human, UniProt Q9P0M4 19-197, biotinylated in the receptor inhibition assay (ECL biotinylation module))
T1 construct: Recombinant protein, purchased or made in-house (Novus #NBP1-42910 in the cell assays); also called hIL-17C; interleukin 17C
T1 sequence: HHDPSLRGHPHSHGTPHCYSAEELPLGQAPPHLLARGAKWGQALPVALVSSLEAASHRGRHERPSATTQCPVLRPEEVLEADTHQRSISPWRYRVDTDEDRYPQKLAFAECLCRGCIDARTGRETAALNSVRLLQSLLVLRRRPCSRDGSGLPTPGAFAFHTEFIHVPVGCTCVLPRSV

T2: Mouse IL-17C (mouse, UniProt Q8K4C5 17-194, biotinylated in the receptor inhibition assay (ECL biotinylation module))
T2 construct: Recombinant protein (R&D Systems #2306-ml-025 in the cell assays); also called mIL-17C
T2 sequence: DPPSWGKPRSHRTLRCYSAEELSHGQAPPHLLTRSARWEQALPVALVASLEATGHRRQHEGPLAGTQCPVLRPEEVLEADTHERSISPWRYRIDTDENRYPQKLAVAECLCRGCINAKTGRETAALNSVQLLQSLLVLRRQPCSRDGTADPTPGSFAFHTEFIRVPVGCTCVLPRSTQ

T3: Cynomolgus monkey IL-17C (cynomolgus monkey, UniProt Q9P0M4 19-197 (human entry), limits assumed, biotinylated in the receptor inhibition assay (ECL biotinylation module))
T3 chain: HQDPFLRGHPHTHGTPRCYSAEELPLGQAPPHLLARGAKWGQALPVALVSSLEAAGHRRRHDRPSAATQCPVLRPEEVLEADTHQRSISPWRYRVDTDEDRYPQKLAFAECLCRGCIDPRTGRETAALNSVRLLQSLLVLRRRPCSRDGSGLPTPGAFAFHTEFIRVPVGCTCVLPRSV


Key:
Human IL-17C [1] = target: T1, Human IL-17C; assay: MSD receptor inhibition assay, IgG format: IgG pre-incubated with biotinylated human IL-17C, binding to coated mouse IL17RE/Fc
Experimental: (§1) Purified IL-17C specific Fabs or IgGs, respectively were tested for its capacity to inhibit the binding of IL-17C to its specific receptor IL-17RE. Therefore MA6000 384-well plates (Meso Scale Discovery, MSD) were coated with 30 μl of mouse IL17RE/Fc chimeric protein at 75 ng/ml in PBS at 4° C. overnight. The next day a serial antibody dilution (concentrations from 0.001 to 100 nM) were pre-incubated for 30 min at RT with an equal volume of biotinylated human/cynomolgus or mouse IL-17C to determine an IC₅₀ concentration for receptor binding inhibition. After blocking of plates for 1 h with 2.5% BSA in PBST, previously formed antibody-ligand complexes were added for 1 h to coated IL17RE/Fc and receptor binding was detected via Streptavidin-ECL using MSD Sector Imager.
(§2) Results are shown in rows 3 and 4 in Table 2 and Table 3 respectively.

Mouse IL-17C [2] = target: T2, Mouse IL-17C; assay: MSD receptor inhibition assay, IgG format: IgG pre-incubated with biotinylated mouse IL-17C, binding to coated mouse IL17RE/Fc
Experimental: as §1, §2

Mouse IL-17C [3] = target: T2, Mouse IL-17C; assay: cell-based or functional assay
Cynomolgus monkey IL-17C [4] = target: T3, Cynomolgus monkey IL-17C; assay: cell-based or functional assay
Human IL-17C [5] = target: T1, Human IL-17C; assay: cell-based or functional assay
Cynomolgus monkey IL-17C [6] = target: T3, Cynomolgus monkey IL-17C; assay: MSD receptor inhibition assay, IgG format: IgG pre-incubated with biotinylated cynomolgus IL-17C, binding to coated mouse IL17RE/Fc
Experimental: as §1, §2

Mouse IL-17C [7] = target: T2, Mouse IL-17C; assay: SET (solution equilibrium titration, ECL based), apparent affinity, bivalent IgG
From the text: (§3) Solution equilibrium titration (SET) was basically performed as described in the literature (Friquet et al., (1985) J. Immunol. Meth. 77: 305-19). In order to improve the sensitivity and accuracy of the SET method, it was transferred from classical ELISA to ECL based technology (Haenel et al. (2005) Anal Biochem. 339.1: 182-84).

Cynomolgus monkey IL-17C [8] = target: T3, Cynomolgus monkey IL-17C; assay: as above
From the text: as §3

Human IL-17C [9] = target: T1, Human IL-17C; assay: as above
From the text: as §3

Human IL-17C [10] = target: T1, Human IL-17C; assay: MSD receptor inhibition assay, Fab format: Fab pre-incubated with biotinylated human IL-17C, binding to coated mouse IL17RE/Fc
Experimental: as §1, §2

Mouse IL-17C [11] = target: T2, Mouse IL-17C; assay: SET (solution equilibrium titration, ECL based), monovalent affinity, Fab
From the text: as §3

Cynomolgus monkey IL-17C [12] = target: T3, Cynomolgus monkey IL-17C; assay: as above
From the text: as §3

Human IL-17C [13] = target: T1, Human IL-17C; assay: as above
From the text: as §3

Mouse IL-17C [14] = target: T2, Mouse IL-17C; assay: MSD receptor inhibition assay, Fab format: Fab pre-incubated with biotinylated mouse IL-17C, binding to coated mouse IL17RE/Fc
Experimental: as §1

Cynomolgus monkey IL-17C [15] = target: T3, Cynomolgus monkey IL-17C; assay: MSD receptor inhibition assay, Fab format: Fab pre-incubated with biotinylated cynomolgus IL-17C, binding to coated mouse IL17RE/Fc
Experimental: as §1, §2

Mouse IL-17C [16] = target: T2, Mouse IL-17C; assay: cell-based or functional assay; remark: listed apart in the source
Cynomolgus monkey IL-17C [17] = target: T3, Cynomolgus monkey IL-17C; assay: cell-based or functional assay
Human IL-17C [18] = target: T1, Human IL-17C; assay: cell-based or functional assay; remark: listed apart in the source
Cynomolgus monkey IL-17C [19] = target: T3, Cynomolgus monkey IL-17C; assay: MSD receptor inhibition assay, Fab format: Fab pre-incubated with biotinylated cynomolgus IL-17C, binding to coated mouse IL17RE/Fc
Experimental: as §1

| Binder | IC50 (Human IL-17C [1]) | IC50 (Mouse IL-17C [2]) | IC50 (Cynomolgus monkey IL-17C [6]) | EC50 (Mouse IL-17C [7]) | EC50 (Human IL-17C [9]) | IC50 (Human IL-17C [10]) | Kd (Mouse IL-17C [11]) | Kd (Cynomolgus monkey IL-17C [12]) | Kd (Human IL-17C [13]) | IC50 (Mouse IL-17C [14]) | other results |
| --- | --- | --- | --- | --- | --- | --- | --- | --- | --- | --- | --- |
| MAB#1 Fab (Fab, V domains shown, Purified monovalent Fab; also called MAB#1 (Fab format)) VH: EVQLLESGGGLVQPGGSLRLSCAASGFTVSDYAMHWVRQAPGKGLEWVSYIGGVGEGTQYAESVKGRFTISRDNSKNTLYLQMNSLRAEDTAVYYCARGFAIRYYGFDYWGQGTLVTVSS VL: SYELTQPPSVSVSPGQTASITCSGDKLGDKYAYWYQQKPGQSPVLVIYQDSKRPSGIPERFSGSNSGNTATLTISGTQAEDEADYYCQVFTFPLVTTVFGGGTKLTVLG | – | – | – | – | – | 2.9 nM | 28 nM | 22 nM | 3.95 nM | 6 nM | IC50 (Cynomolgus monkey IL-17C [15]): 2.7 nM |
| MAB#2 IgG1 (antibody, V domains shown, Human IgG1 with lambda light chain from the Ylanthia library) VH: QVQLVESGGGLVKPGGSLRLSCAASGFTFSDHYISWIRQAPGKGLEWVSYISSSGSTTYYAESVKGRFTISRDNAKNSLYLQMNSLRAEDTAVYYCARQSYYFLPYFDVWGQGTLVTVSS VL: QSALTQPASVSGSPGQSITISCTGTSSDVGSYNLVSWYQQHPGKAPKLMIYEGSKRPSGVSNRFSGSKSGNTASLTISGLQAEDEADYYCASRGSRRVLYVFGGGTKLTVLG | 0.058 nM | 0.048 nM | 0.057 nM | 0.323 nM | 0.016 nM | – | – | – | – | – | Keratinocyte assay (IC50; CSF3 gene expression in mouse primary keratinocytes) (Mouse IL-17C [16]): 0.051 nM; NF-κB reporter assay (IC50) (Mouse IL-17C [16]): 0.0648 nM; NF-κB reporter assay (IC50) (Cynomolgus monkey IL-17C [17]): 0.0129 nM; Keratinocyte assay (IC50; DEFB4A gene expression in primary human keratinocytes stimulated with hIL-17C and TNFα) (Human IL-17C [18]): 0.28 nM; NF-κB reporter assay (IC50) (Human IL-17C [18]): 0.0185 nM |

Now from value to binder, other results behind:

| IC50 (Human IL-17C [1]) | IC50 (Mouse IL-17C [2]) | IC50 (Cynomolgus monkey IL-17C [6]) | EC50 (Mouse IL-17C [7]) | EC50 (Human IL-17C [9]) | IC50 (Human IL-17C [10]) | Kd (Mouse IL-17C [11]) | Kd (Cynomolgus monkey IL-17C [12]) | Kd (Human IL-17C [13]) | IC50 (Mouse IL-17C [14]) | Binder | other results |
| --- | --- | --- | --- | --- | --- | --- | --- | --- | --- | --- | --- |
| 0.059 nM | 0.055 nM | 0.044 nM | 0.387 nM | 0.019 nM | – | – | – | – | – | MAB#1 IgG1 (antibody, V domains shown, Human IgG1 with lambda light chain from the Ylanthia library) VH: EVQLLESGGGLVQPGGSLRLSCAASGFTVSDYAMHWVRQAPGKGLEWVSYIGGVGEGTQYAESVKGRFTISRDNSKNTLYLQMNSLRAEDTAVYYCARGFAIRYYGFDYWGQGTLVTVSS VL: SYELTQPPSVSVSPGQTASITCSGDKLGDKYAYWYQQKPGQSPVLVIYQDSKRPSGIPERFSGSNSGNTATLTISGTQAEDEADYYCQVFTFPLVTTVFGGGTKLTVLG | Keratinocyte assay (IC50; CSF3 gene expression in mouse primary keratinocytes) (Mouse IL-17C [3]): 0.112 nM; NF-κB reporter assay (IC50) (Mouse IL-17C [3]): 0.0476 nM; NF-κB reporter assay (IC50) (Cynomolgus monkey IL-17C [4]): 0.0128 nM; Keratinocyte assay (IC50; DEFB4A gene expression in primary human keratinocytes stimulated with hIL-17C and TNFα) (Human IL-17C [5]): 0.319 nM; NF-κB reporter assay (IC50) (Human IL-17C [5]): 0.0313 nM; EC50 (Cynomolgus monkey IL-17C [8]): 0.257 nM |
| – | – | – | – | – | 0.076 nM | 0.46 nM | 0.063 nM | 0.037 nM | 0.15 nM | MAB#2 Fab (Fab, V domains shown, Purified monovalent Fab; also called MAB#2 (Fab format)) VH: QVQLVESGGGLVKPGGSLRLSCAASGFTFSDHYISWIRQAPGKGLEWVSYISSSGSTTYYAESVKGRFTISRDNAKNSLYLQMNSLRAEDTAVYYCARQSYYFLPYFDVWGQGTLVTVSS VL: QSALTQPASVSGSPGQSITISCTGTSSDVGSYNLVSWYQQHPGKAPKLMIYEGSKRPSGVSNRFSGSKSGNTASLTISGLQAEDEADYYCASRGSRRVLYVFGGGTKLTVLG | IC50 (Cynomolgus monkey IL-17C [19]): 0.05 nM |
